The target in test [1] is T1, IFNAR2/Ig fusion protein (IFNAR2 extracellular domain fused to the hinge, CH2 and CH3 domains of human IgG1) (human, UniProt P48551 27-243).
T1 construct: extracellular domain; also called IFNAR2/Fc; IFNAR2-Fc; not shown: human IgG1 constant region: hinge, CH2 and CH3 domains
T1 sequence (looked up): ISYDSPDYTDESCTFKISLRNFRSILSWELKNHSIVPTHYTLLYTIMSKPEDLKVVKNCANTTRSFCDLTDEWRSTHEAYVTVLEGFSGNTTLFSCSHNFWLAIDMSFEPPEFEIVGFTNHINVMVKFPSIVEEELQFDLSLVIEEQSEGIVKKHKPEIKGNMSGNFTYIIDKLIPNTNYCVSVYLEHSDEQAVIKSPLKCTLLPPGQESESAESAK
The test can be described thus: ELISA on captured IFNAR2-Fc; reference, value not given. On the procedure: The receptor binding properties of the Interferon-beta mutants described in C were assessed using two different binding assays. One assay measured binding of the interferon-beta mutants to a fusion protein, IFNAR2/Ig, comprising the extracellular domain of the human IFNAR2 receptor chain fused to part of the constant region of a human IgG. IFNAR2-Fc was expressed in chinese hamster ovary (CHO) cells and purified by protein A sepharose affinity chromatography according to the instructions of the manufacturer (Pierce Chem. Co., Rockford, Ill., catalog #20334). The binding of interferon-beta mutants to IFNAR2-Fc was measured in an ELISA format assay. […] Binding of the interferon-beta mutants to IFNAR2-Fc was measured by adding 50 μl/well mutant interferon-beta in conditioned media, serially diluted in Dulbecco's Modified Eagle's Medium (DMEM) supplemented with 10% fetal bovine serum, and incubating for 2 hours at 4° C. […] After washing, interferon-beta bound to the plates was detected by adding 50 μl/well of a cocktail consisting of a 1:1000 dilution of a rabbit polyclonal anti-interferon antibody (#447) plus horseradish peroxidase (HRP)-labelled donkey anti-rabbit IgG (Jackson ImmunoResearch), and incubating for 15 minutes at 4° C. After two washes, HRP substrate was added, and the plate was incubated at 4° C. before being read on an ELISA plate reader at an absorbance of 450 nm. […]

Test [2] concerns the target T1, IFNAR2/Ig fusion protein (IFNAR2 …). Kind of test: ELISA on captured IFNAR2-Fc. As to the method: (§1) The receptor binding properties of the Interferon-beta mutants described in C were assessed using two different binding assays. One assay measured binding of the interferon-beta mutants to a fusion protein, IFNAR2/Ig, comprising the extracellular domain of the human IFNAR2 receptor chain fused to part of the constant region of a human IgG. IFNAR2-Fc was expressed in chinese hamster ovary (CHO) cells and purified by protein A sepharose affinity chromatography according to the instructions of the manufacturer (Pierce Chem. Co., Rockford, Ill., catalog #20334). The binding of interferon-beta mutants to IFNAR2-Fc was measured in an ELISA format assay. ELISA plates were prepared by coating flat-bottomed 96 well plates overnight at 4° C. with 50 μl/well of mouse anti-human IgG1 monoclonal antibody (CDG5-AA9, Biogen, Inc.) at 10 μg/ml in coating buffer (50 mM NaHCO₃, 0.2 mM MgCl₂, 0.2 mM CaCl₂, pH 9.6). Plates were washed twice with PBS containing 0.05% Tween-20, and blocked with 0.5% non-fat dry milk in PBS for 1 hour at room temperature. After two more washes, 50 μl of 1 μg/ml IFNAR2-Fc in 0.5% milk in PBS containing 0.05% Tween-20 was added to each well and incubated for 1 hour at room temperature, and the plates were then washed twice more. Binding of the interferon-beta mutants to IFNAR2-Fc was measured by adding 50 μl/well mutant interferon-beta in conditioned media, serially diluted in Dulbecco's Modified Eagle's Medium (DMEM) supplemented with 10% fetal bovine serum, and incubating for 2 hours at 4° C. Dilutions of interferon-beta mutant typically ranged from approximately 1 μM down to 10 pM. After washing, interferon-beta bound to the plates was detected by adding 50 μl/well of a cocktail consisting of a 1:1000 dilution of a rabbit polyclonal anti-interferon antibody (#447) plus horseradish peroxidase (HRP)-labelled donkey anti-rabbit IgG (Jackson ImmunoResearch), and incubating for 15 minutes at 4° C. After two washes, HRP substrate was added, and the plate was incubated at 4° C. before being read on an ELISA plate reader at an absorbance of 450 nm. Data were plotted as absorbance versus the concentration of mutant interferon-beta, and the affinity for the binding of the mutant interferon-beta to IFNAR2-Fc was determined by fitting the data to a simple hyperbolic binding equation.

Test [3] has the same target. The test can be described thus: ELISA; IFNAR2-Fc captured on anti-human IgG1 plate; mutant in conditioned medium. On the procedure: as §1

The values below come from patent US20030021765A1 (Biogen, published 2003).

B1: his tagged-wild-type interferon-beta-1a (ligand)
chain: SGGHHHHHHSSGDDDDKMSYNLLGFLQRSSNFQCQKLLWQLNGRLEYCLKDRMNFDIPEEIKQLQQFQKEDAALTIYEMLQNIFAIFRQDSSSTGWNETIVENLLANVYHQINHLKTVLEEKLEKEDFTRGKLMSSLHLKRYYGRILHYLKAKEYSHCAWTIVRVEILRNFYFINRLTGYLRN
notes: Expressed in human EBNA 293 cells and tested as conditioned medium; also called wild type his-IFN-beta; w.t. his-IFN-beta
As for B1, in test [1], the binding result was “binds”.

B2: his tagged-interferon-beta alanine substitution mutant AB1 (ligand)
chain: SGGHHHHHHSSGDDDDKMSYNLLGFLQRSSNFQCQKLLWQLNGRAAACAADRMNFDIPEEIKQLQQFQKEDAALTIYEMLQNIFAIFRQDSSSTGWNETIVENLLANVYHQINHLKTVLEEKLEKEDFTRGKLMSSLHLKRYYGRILHYLKAKEYSHCAWTIVRVEILRNFYFINRLTGYLRN
notes: Tested as EBNA 293 conditioned medium
Turning to B2, the “EC50 relative to w.t. his-IFN-beta EC50” value in test [2] is > 500 fold of w.t. his-IFN-beta EC50. Further, the binding result in test [3] was “no binding”.

B3: his tagged-interferon-beta alanine substitution mutant A2 (ligand)
chain: SGGHHHHHHSSGDDDDKMSYNLLGFLQRSSNAACAALLAALNGRLEYCLKDRMNFDIPEEIKQLQQFQKEDAALTIYEMLQNIFAIFRQDSSSTGWNETIVENLLANVYHQINHLKTVLEEKLEKEDFTRGKLMSSLHLKRYYGRILHYLKAKEYSHCAWTIVRVEILRNFYFINRLTGYLRN
notes: Tested as EBNA 293 conditioned medium; also called A2 helix mutant
Regarding B3, the “EC50 relative to w.t. his-IFN-beta EC50” value in test [2] is > 500 fold of w.t. his-IFN-beta EC50. Besides, the binding result in test [3] is recorded as “no binding”.

B4: his tagged-interferon-beta alanine substitution mutant E (ligand)
chain: SGGHHHHHHSSGDDDDKMSYNLLGFLQRSSNFQCQKLLWQLNGRLEYCLKDRMNFDIPEEIKQLQQFQKEDAALTIYEMLQNIFAIFRQDSSSTGWNETIVENLLANVYHQINHLKTVLEEKLEKEDFTRGKLMSSLHLKRYYGRILHYLKAKEYSHCAWTIVRAEILANFAFIARLTGYLRN
notes: also called E helix mutant
As for B4, the “EC50 relative to w.t. his-IFN-beta EC50” value in test [2] is > 500 fold of w.t. his-IFN-beta EC50. The binding result in test [3] was “no binding”.

B5: his tagged-interferon-beta alanine substitution mutant AB2 (ligand)
chain: SGGHHHHHHSSGDDDDKMSYNLLGFLQRSSNFQCQKLLWQLNGRLEYCLKDRAAFAIPAEIKQLQQFQKEDAALTIYEMLQNIFAIFRQDSSSTGWNETIVENLLANVYHQINHLKTVLEEKLEKEDFTRGKLMSSLHLKRYYGRILHYLKAKEYSHCAWTIVRVEILRNFYFINRLTGYLRN
notes: as for B2
B5: in test [2], the “EC50 relative to w.t. his-IFN-beta EC50” value was > 500 fold of w.t. his-IFN-beta EC50. Moreover, the binding result in test [3] is recorded as “no binding”.
